From article PMC11480844 (2024)

B1: H2-Kb / F4 (parent complex)
chain 1: QQQVRQSPQSLTVWEGETAILNCSYEDSTFNYFPWYQQFPGEGPALLISIRSVSDKKEDGRFTIFFNKREKKLSLHITDSQPGDSATYFCAAMSNYNVLYFGSGTKLTVEP
chain 2: ETAVFQTPNYHVTQVGNEVSFNCKQTLGHDTMYWYKQDSKKLLKIMFSYNNKQLIVNETVPRRFSPQSSDKAHLNLRIKSVEPEDSAVYLCASSARQNSPLYFAAGTRLTVT
chain 3: not shown
chain 4: IQKTPQIQVYSRHPPENGKPNILNCYVTQFHPPHIEIQMLKNGKKIPKVEMSDMSFSKDWSFYILAHTEFTPTETDTYACRVKHDSMAEPKTVYWDRDM
chain 5: SIINFEKL
B2: H2-Kb / Ed8 (parent complex)
chain 1: AQSVTQPDARVTVSEGASLQLRCKYSYFGTPYLFWYVQYPRQGLQLLLKYYPGDPVVQGVNGFEAEFSKSNSSFHLRKASVHWSDWAVYFCAVSPGSGGKLTLGAGTRLQVNL
chain 2: DSGVVQSPRHIIKEKGGRSVLTCIPISGHSNVVWYQQTLGKELKFLIQHYEKVERDKGFLPSRFSVQQFDDYHSEMNMSALELEDSAMYFCASSPRASNYTFGSGTRLLVI
chain 3: not shown
chain 4: B1 chain 4
chain 5: SIINFEKL

Variants of: B1
Assay: % of reporter cells activated (NFAT-GFP), raw
Also: test concentration or dose not given here.

| Variant | ratio to parent |
| --- | --- |
| chain 5 I3A | 0.467 |
| chain 5 I2A | 1.38 |
| chain 5 I2N | 0.305 |
| chain 5 I2M | 0.617 |
| chain 5 I2V | 1.94 |
| chain 5 F5P | 0.0353 |
| chain 5 F5G | 0.264 |
| chain 5 F5D | 0.129 |
| chain 5 F5C | 1.29 |

Continued, values first:

| ratio to parent | Variant |
| --- | --- |
| 0.0259 | chain 5 S1R |
| 0.0415 | chain 5 N4W |
| 0.0228 | chain 5 N4E |
| 0.614 | chain 5 L8T |
| 0.805 | chain 5 L8H |

Variants of: B2
Assay: % of reporter cells activated (NFAT-GFP), raw

| Variant | ratio to parent |
| --- | --- |
| chain 5 K7E | 0.0642 |
| chain 5 K7P | 0.689 |
| chain 5 K7H | 1.25 |
| chain 5 K7R | 1.16 |
| chain 5 K7F | 0.393 |
| chain 5 K7C | 0.326 |
| chain 5 K7Q | 0.662 |
| chain 5 K7L | 0.815 |
| chain 5 K7D | 0.0673 |
| chain 5 K7S | 0.898 |
| chain 5 K7N | 0.809 |
| chain 5 K7M | 0.578 |
| chain 5 K7A | 0.643 |
| chain 5 K7G | 0.616 |
| chain 5 K7I | 0.698 |
| chain 5 F5K | 1.02 |
| chain 5 F5W | 1.12 |
| chain 5 F5P | 1.16 |
| chain 5 F5T | 1.32 |
| chain 5 F5Q | 1.04 |
| chain 5 F5S | 1.21 |
| chain 5 F5I | 0.895 |
| chain 5 F5G | 1.03 |
| chain 5 F5N | 1.1 |
| chain 5 F5M | 1.25 |
| chain 5 F5V | 1.09 |

| Variant | ratio to parent |
| --- | --- |
| chain 5 F5C | 1.3 |
| chain 5 F5Y | 1.34 |
| chain 5 F5L | 1.41 |
| chain 5 F5E | 0.932 |
| chain 5 F5D | 1.12 |
| chain 5 I2Y | 1.06 |
| chain 5 I2L | 1.37 |
| chain 5 I2S | 1.37 |
| chain 5 I2F | 1.25 |
| chain 5 I2C | 1.33 |
| chain 5 I2N | 1.26 |
| chain 5 I2R | 1.16 |
| chain 5 I2V | 1.41 |
| chain 5 I2M | 1.2 |
| chain 5 I2K | 1.18 |
| chain 5 I2D | 1.39 |
| chain 5 I2T | 1.43 |
| chain 5 I2E | 1.34 |
| chain 5 I2A | 1.41 |
| chain 5 I2P | 1.4 |
| chain 5 I2W | 1.16 |
| chain 5 I2H | 1.13 |
| chain 5 I2Q | 1.06 |
| chain 5 I3L | 1.3 |
| chain 5 I3M | 1.27 |
| chain 5 I3D | 1.17 |

| Variant | ratio to parent |
| --- | --- |
| chain 5 I3W | 1.03 |
| chain 5 I3Y | 0.813 |
| chain 5 I3K | 1.03 |
| chain 5 I3S | 1.3 |
| chain 5 I3P | 1.25 |
| chain 5 I3N | 1.32 |
| chain 5 I3C | 1.27 |
| chain 5 I3Q | 1.02 |
| chain 5 I3T | 1.34 |
| chain 5 I3F | 0.98 |
| chain 5 I3R | 0.541 |
| chain 5 I3H | 1.4 |
| chain 5 I3A | 1.14 |
| chain 5 E6M | 0.453 |
| chain 5 E6G | 1.04 |
| chain 5 E6N | 0.733 |
| chain 5 E6I | 0.00371 |
| chain 5 E6C | 0.0436 |
| chain 5 E6R | 0.459 |
| chain 5 E6W | 0.012 |
| chain 5 E6A | 0.678 |
| chain 5 E6P | 0.27 |
| chain 5 E6L | 0.0522 |
| chain 5 E6Q | 0.777 |
| chain 5 E6Y | 0.606 |
| chain 5 E6V | 0.0189 |

More lines, now with the values ahead:

| ratio to parent | Variant |
| --- | --- |
| 0.826 | chain 5 K7W |
| 0.73 | chain 5 K7V |
| 0.958 | chain 5 K7Y |
| 0.648 | chain 5 K7T |
| 0.0721 | chain 5 N4C |
| 0.00512 | chain 5 N4Q |
| 0.255 | chain 5 N4A |
| 0.336 | chain 5 N4E |
| 0.262 | chain 5 N4T |
| 0.155 | chain 5 N4H |
| 0.442 | chain 5 N4R |
| 0.00499 | chain 5 N4P |
| 0.00716 | chain 5 N4W |
| 0.0339 | chain 5 N4G |
| 0.00281 | chain 5 N4M |
| 0.00468 | chain 5 N4Y |
| 0.469 | chain 5 N4I |
| 0.721 | chain 5 N4K |
| 0.0175 | chain 5 N4V |
| 0.216 | chain 5 N4S |

| ratio to parent | Variant |
| --- | --- |
| 0.015 | chain 5 N4F |
| 0.84 | chain 5 N4L |
| 0.95 | chain 5 L8W |
| 1.1 | chain 5 L8T |
| 1.22 | chain 5 L8H |
| 1.04 | chain 5 L8C |
| 1.21 | chain 5 L8P |
| 0.853 | chain 5 L8E |
| 0.903 | chain 5 L8D |
| 1.16 | chain 5 L8Y |
| 1.05 | chain 5 L8A |
| 0.945 | chain 5 L8S |
| 1.13 | chain 5 L8Q |
| 1.06 | chain 5 L8N |
| 1.12 | chain 5 L8F |
| 1.13 | chain 5 L8M |
| 1.2 | chain 5 L8G |
| 0.877 | chain 5 L8V |
| 1.15 | chain 5 L8I |
| 1.15 | chain 5 L8K |

| ratio to parent | Variant |
| --- | --- |
| 1.37 | chain 5 S1T |
| 0.799 | chain 5 S1R |
| 1.12 | chain 5 S1D |
| 1.15 | chain 5 S1V |
| 1.13 | chain 5 S1P |
| 1.02 | chain 5 S1K |
| 0.821 | chain 5 S1N |
| 1.28 | chain 5 S1G |
| 1.03 | chain 5 S1C |
| 1.27 | chain 5 S1M |
| 1.24 | chain 5 S1Q |
| 0.917 | chain 5 S1L |
| 1.28 | chain 5 S1E |
| 1.3 | chain 5 S1H |
| 1.16 | chain 5 S1Y |
| 1.28 | chain 5 S1A |
| 0.983 | chain 5 S1I |
| 1.05 | chain 5 S1W |
